# Substitutions are numbered along the chain they refer to.
# B1: 638 (protein)
# chain: LDNGLARTPPMGWLHWERFMCNLDCQEEPDSCISEKLFMEMAERMVTEGWKDAGYEYLCIDDCWMAPQRDSEGRLQADPQRFPHGIRQLANHVHSKGLKLGIYADVGNKTCAGFPGSFGYYDIDAQTFADWGVDLLKFDGCYCDSLENLADGYKHMSLALNRTGRPIVYSCEWPLYMWPFQKPNYTEIRQYCNHWRNFADIDDSWASIKSILDWTSRNQERIVDVAGPGGWNDPDMLVIGNFGLSWDQQVTQMALWAIMAGPLFMSNDLRAISPQAKALLQDKDVIAINQDPLGKQGYQLRKGDNFEVWERPLSGDAWAVAIINRQEIGGPRSYTIPVASLGKGVACNPACFITQLLPVKRQLGFYNWTSRLKSHINPTGTVLLQLENTMQTSLKDLL
# modifications: Synthetic Polypeptide sequence of Variant No. 638 of mature Human GLA
# B2: 659 (protein)
# chain: B1 chain with P10T, W64L, G261A
# modifications: Synthetic Polypeptide sequence of Variant No. 659 of mature Human GLA
# B3: 658 (protein)
# chain: B1 chain with P10T, M39E, W246P, G261A
# modifications: Synthetic Polypeptide sequence of Variant No. 658 of mature Human GLA
# B4: 237 (protein)
# chain: LDNGLARTPTMGWLHWERFMCNLDCQEEPDSCISEKLFMEMAELMVSEGWKDAGYEYLCIDDCWMAPQRDSEGRLQADPQRFPHGIRQLANYVHSKGLKLGIYADVGNKTCAGFPGSFGYYDIDAQTFADWGVDLLKFDGCYCDSLENLADGYKHMSLALNRTGRSIVYSCEWPLYMWPFQKPNYTEIRQYCNHWRNFADIDDSWASIKSILDWTSRNQERIVDVAGPGGWNDPDMLVIGNFGLSWNQQVTQMALWAIMAAPLFMSNDLRHISPQAKALLQDKDVIAINQDPLGKQGYQLRKGDNFEVWERPLSGDAWAVAMINRQEIGGPRSYTIPVASLGKGVACNPGCFITQLLPVKRKLGFYDWDSRLRSHINPTGTVLLQLENTMQMSLKDLL
# modifications: Synthetic Polypeptide sequence of Variant No. 237 of mature Human GLA
# B5: 240 (protein)
# chain: B4 chain with R217F, L269I, K302Q, D316L, P337A, P349L, G350A, D367E, D369T, R373K
# modifications: Synthetic Polypeptide sequence of Variant No. 240 of mature Human GLA
# B6: 238 (protein)
# chain: LDNGLARTPTMGWLHWERFMCNLDCQEEPDSCISEKLFMEMAELMVSEGWKDAGYEYLCIDDCWMAPQRDSEGRLQADPQRFPHGIRQLANYVHSKGLKLGIYADVGNKTCAGFPGSFGYYDIDAQTFADWGVDLLKFDGCYCDSLENLADGYKHMSLALNRTGRSIVYSCEWPLYMWPFQKPNYTEIRQYCNHWRNFADIDDSWASVKSILDWTSFNQERIVDVAGPGGWNDPDMLVIGNFGLSWNQQVTQMALWAIMAAPLFMSNDLRHISPQAKALLQDKDVIAINQDPLGKQGYQLRQGDNFEVWERPLSGLAWAVAVINRQEIGGPRSYTIAVASLGGGVACNPACFITQLLPVKRKLGLYEWTSRLKSHVNPTGTVLLQLENTMQMSLKDLL
# modifications: Synthetic Polypeptide sequence of Variant No. 238 of mature Human GLA
# B7: 239 (protein)
# chain: B6 chain with R221K, N247D, V322I, G343D
# modifications: Synthetic Polypeptide sequence of Variant No. 239 of mature Human GLA
# B8: 242 (protein)
# chain: B6 chain with V208I, N247D, V376I
# modifications: Synthetic Polypeptide sequence of Variant No. 242 of mature Human GLA
# B9: 241 (protein)
# chain: B6 chain with V208I, N247D, G343D, L365F
# modifications: Synthetic Polypeptide sequence of Variant No. 241 of mature Human GLA
# Test: HTP-analysis of supernatants pretreated with base (MUGal hydrolysis)
# Assay type: biochemical
# Conditions: activity of the variant/activity of Rd7BB (SEQ ID NO: 44); challenge at pH 7.5
# Method in brief: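 GLA variants were secreted by transformed INVSc1 yeast grown 66-84 h at 30° C. Supernatants were exposed to neutral-to-basic buffers (pH 7.0-9.7) at 37° C for 1-18 h, then assayed with MUGal in acidic citrate/McIlvaine buffer, with fluorescence read after quenching.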
row,Molecule,Relative Activity of GLA Variants After Challenge at pH 7.5
1,B1,− (<0.5 relative activity to Rd7BB (SEQ ID NO: 44))
2,B2,− (<0.5 relative activity to Rd7BB (SEQ ID NO: 44))
3,B3,+ (>0.5 to 1.5 relative activity over Rd7BB (SEQ ID NO: 44))

# Same assay, conditions: challenge at pH 7.6; activity of the variant/activity of Rd2BB (SEQ ID NO: 10); yeast culture supernatant
row,Molecule,Relative Activity of GLA Variants After Challenge at pH 7.6
1,B4,+++ (+++ = >2.5 relative activity over Rd2BB (SEQ ID NO: 10))
2,B5,+ (+ = 0.5 to 1.5 relative activity over Rd2BB (SEQ ID NO: 10))
3,B6,+++ (+++ = >2.5 relative activity over Rd2BB (SEQ ID NO: 10))
4,B7,+++ (+++ = >2.5 relative activity over Rd2BB (SEQ ID NO: 10))
5,B8,+++ (+++ = >2.5 relative activity over Rd2BB (SEQ ID NO: 10))
6,B9,+++ (+++ = >2.5 relative activity over Rd2BB (SEQ ID NO: 10))

# Test: HTP-analysis of supernatants pretreated with bovine serum (MUGal hydrolysis)
# Assay type: biochemical
# Conditions: activity of the variant/activity of Rd2BB (SEQ ID NO: 10), yeast culture supernatant
# Method: Yeast (INVSc1) cells transformed with vectors expressing GLA and GLA variants using the lithium acetate method were selected on SD-Ura agar plates. After 72 h incubation at 30° C. colonies were placed into the wells of Axygen® 1.1 ml 96-well deep well plates filled with 200 μl/well SD-Ura broth (2 g/L SD-Ura, 6.8 g/L yeast nitrogen base without amino acids [Sigma Aldrich]), 3.06 g/L sodium dihydrogen phosphate, 0.804 g/L disodium hydrogen phosphate, pH 6.0 supplemented with 6% glucose. The cells were allowed to grow for 20-24 hours in a Kuhner shaker (250 rpm, 30° C., and 85% relative humidity). Overnight culture samples (20 μL) were transferred into Corning Costar® 96-well deep plates filled with 380 µL of SD-ura broth supplemented with 2% glucose. The plates were incubated for 66-84 h in a Kuhner shaker (250 rpm, 30° C., and 85% relative humidity). The cells were then pelleted (4000 rpm×20 min), and the supernatants isolated and stored at 4° C. prior to analysis.
# GLA variants were challenged with bovine serum to simulate the conditions the variants encounter following infusion into a patient. First, 20 μL of yeast culture supernatant and 80 μL, of bovine serum were added to the wells of a 96-well round bottom plate. The plates were sealed and incubated at 37° C. for 1 h. For the assay, 50 μL of serum-challenged sample was mixed with 25 μL, of 1 M citrate buffer pH 4.3 and 25 μL, of 4 mM MUGal in McIlvaine buffer pH 4.8. The reactions were mixed briefly and incubated at 37° C. for 180 minutes, prior to quenching with 100 μL, of 1 M sodium carbonate. Hydrolysis was analyzed using a SpectraMax® M2 microplate reader monitoring fluorescence (Ex. 355 nm, Em. 448 nm).
row,Molecule,Relative Activity of GLA Variants After Challenge with Serum
1,B4,+++ (+++ = >2.5 relative activity over Rd2BB (SEQ ID NO: 10))
2,B5,+ (+ = 0.5 to 1.5 relative activity over Rd2BB (SEQ ID NO: 10))
3,B6,++ (++ = 1.5 to 2.5 relative activity over Rd2BB (SEQ ID NO: 10))
4,B7,++ (++ = 1.5 to 2.5 relative activity over Rd2BB (SEQ ID NO: 10))
5,B8,+++ (+++ = >2.5 relative activity over Rd2BB (SEQ ID NO: 10))
6,B9,++ (++ = 1.5 to 2.5 relative activity over Rd2BB (SEQ ID NO: 10))

# Test: HTP-analysis of supernatants pretreated with acid (MUGal hydrolysis)
# Assay type: biochemical
# Conditions: activity of the variant/activity of Rd7BB (SEQ ID NO: 44); challenge at pH 3.5
# Method in brief: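 MUGal hydrolysis was tracked by fluorescence (Ex 355 nm, Em 448 nm) after a 30-180 min reaction at 37° C. in pH 4.8 McIlvaine/citrate buffer, stopped with 1 M sodium carbonate. Beforehand, yeast (INVSc1) culture supernatants carrying GLA variants were held 1-3 h at 37° C. in acidic McIlvaine buffer, pH 3.3-4.3.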
row,Molecule,Relative Activity of GLA Variants After Challenge at pH 3.5
1,B1,− (<0.5 relative activity to Rd7BB (SEQ ID NO: 44))
2,B2,− (<0.5 relative activity to Rd7BB (SEQ ID NO: 44))
3,B3,+ (>0.5 to 1.5 relative activity over Rd7BB (SEQ ID NO: 44))

# Same assay, conditions: challenge at pH 4.2; activity of the variant/activity of Rd2BB (SEQ ID NO: 10); yeast culture supernatant
row,Molecule,Relative Activity of GLA Variants After Challenge at pH 4.2
1,B4,+++ (+++ = >2.5 relative activity over Rd2BB (SEQ ID NO: 10))
2,B5,+ (+ = 0.5 to 1.5 relative activity over Rd2BB (SEQ ID NO: 10))
3,B6,+++ (+++ = >2.5 relative activity over Rd2BB (SEQ ID NO: 10))
4,B7,+++ (+++ = >2.5 relative activity over Rd2BB (SEQ ID NO: 10))
5,B8,+++ (+++ = >2.5 relative activity over Rd2BB (SEQ ID NO: 10))
6,B9,+++ (+++ = >2.5 relative activity over Rd2BB (SEQ ID NO: 10))

# Test: HTP-analysis of yeast culture supernatants, no challenge (MUGal hydrolysis)
# Assay type: biochemical
# Conditions: activity of the variant/activity of Rd2BB (SEQ ID NO: 10), yeast culture supernatant
# Method in brief: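 GLA variants expressed in yeast INVSc1, secreted into SD-Ura broth over 66-84 h at 30° C; clarified supernatants tested without challenge. Supernatant mixed with McIlvaine buffer pH 4.8 and 2 mM MUGal (citrate/KCl, pH 4.6), 37° C for 30-180 min, carbonate-quenched, fluorescence Ex 355/Em 448 nm.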
row,Molecule,Relative Activity of GLA Variants After No Challenge (NC)
1,B4,+++ (+++ = >2.5 relative activity over Rd2BB (SEQ ID NO: 10))
2,B5,− (− = <0.5 relative activity over Rd2BB (SEQ ID NO: 10))
3,B6,++ (++ = 1.5 to 2.5 relative activity over Rd2BB (SEQ ID NO: 10))
4,B7,+++ (+++ = >2.5 relative activity over Rd2BB (SEQ ID NO: 10))
5,B8,+++ (+++ = >2.5 relative activity over Rd2BB (SEQ ID NO: 10))
6,B9,++ (++ = 1.5 to 2.5 relative activity over Rd2BB (SEQ ID NO: 10))

# Same assay, conditions: activity of the variant/activity of Rd7BB (SEQ ID NO: 44)
row,Molecule,Relative Activity of GLA Variants After No Challenge (NC)
1,B1,− (<0.5 relative activity to Rd7BB (SEQ ID NO: 44))
2,B2,− (<0.5 relative activity to Rd7BB (SEQ ID NO: 44))
3,B3,+ (>0.5 to 1.5 relative activity over Rd7BB (SEQ ID NO: 44))

# From patent publication US11278600B2, “Human alpha-galactosidase variants” (Codexis, Inc., priority 2014, dated 2022)
